# From paper PMC9307175 (PLoS Pathogens, 2022)
# B1: S-peptide and His6 dually-tagged vIRF-1, bacterially expressed (pET-S-vIRF-1-His6) (natural protein)
# chain: MDPGQRPNPFGAPGAIPKKPCLSQGSPGTSGSGAPCDEPSRSESPGEGPSGTGGSAAAGDITRQAVVAAITEWSRTRQLRISTGASEGKASIKDWIVCQVNSGKFPGVEWEDEERTRFRIPVTPLADPCFEWRRDGELGVVYIRERGNMPVDASFKGTRGRRRMLAALRRTRGLQEIGKGISQDGHHFLVFRVRKPEEEQCVECGVVAGAVHDFNNMARLLQEGFFSPGQCLPGEIVTPVPSCTTAEGQEAVIDWGRLFIRMYYNGEQVHELLTTSQSGCRISSALRRDPAVHYCAVGSPGQVWLPNVPNLACEIAKRELCDTLDACAKGILLTSSCNGIFCVCYHNGPVHFIGNTVPPDSGPLLLPQGKPTRIFNPNTFLVGLANSPLPAPSHVTCPLVKLWLGKPVAVGKLEPHAPSPRDFAARCSNFSDACVVLEIMPKPLWDAMQ
# notes: source: E. coli BL21(DE3), purified (Ni-NTA)
# B2: StrepII+Flag (SF)-tagged vIRF-1 (natural protein)
# chain: B1 chain
# B3: Flag- and His6-tagged IRF9, bacterially expressed (pET-Flag-IRF9-His6) (natural protein)
# chain: MASGRARCTRKLRNWVVEQVESGQFPGVCWDDTAKTMFRIPWKHAGKQDFREDQDAAFFKAWAIFKGKYKEGDTGGPAVWKTRLRCALNKSSEFKEVPERGRMDVAEPYKVYQLLPPGIVSGQPGTQKVPSKRQHSSVSSERKEEEDAMQNCTLSPSVLQDSLNNEEEGASGGAVHSDIGSSSSSSSPEPQEVTDTTEAPFQGDQRSLEFLLPPEPDYSLLLTFIYNGRVVGEAQVQSLDCRLVAEPSGSESSMEQVLFPKPGPLEPTQRLLSQLERGILVASNPRGLFVQRLCPIPISWNAPQAPPGPGPHLLPSNECVELFRTAYFCRDLVRYFQGLGPPPKFQVTLNFWEESHGSSHTPQNLITVKMEQAFARYLLEQTPEQQAAILSLV
# notes: also called IRF9 (Flag-tagged); recombinant IRF9; source: E. coli BL21(DE3), purified (Ni-NTA)
# B4: Flag-tagged STAT1 (pCEBZ-STAT1-SF) (natural protein)
# chain: MSQWYELQQLDSKFLEQVHQLYDDSFPMEIRQYLAQWLEKQDWEHAANDVSFATIRFHDLLSQLDDQYSRFSLENNFLLQHNIRKSKRNLQDNFQEDPIQMSMIIYSCLKEERKILENAQRFNQAQSGNIQSTVMLDKQKELDSKVRNVKDKVMCIEHEIKSLEDLQDEYDFKCKTLQNREHETNGVAKSDQKQEQLLLKKMYLMLDNKRKEVVHKIIELLNVTELTQNALINDELVEWKRRQQSACIGGPPNACLDQLQNWFTIVAESLQQVRQQLKKLEELEQKYTYEHDPITKNKQVLWDRTFSLFQQLIQSSFVVERQPCMPTHPQRPLVLKTGVQFTVKLRLLVKLQELNYNLKVKVLFDKDVNERNTVKGFRKFNILGTHTKVMNMEESTNGSLAAEFRHLQLKEQKNAGTRTNEGPLIVTEELHSLSFETQLCQPGLVIDLETTSLPVVVISNVSQLPSGWASILWYNMLVAEPRNLSFFLTPPCARWAQLSEVLSWQFSSVTKRGLNVDQLNMLGEKLLGPNASPDGLIPWTRFCKENINDKNFPFWLWIESILELIKKHLLPLWNDGCIMGFISKERERALLKDQQPGTFLLRFSESSREGAITFTWVERSQNGGEPDFHAVEPYTKKELSAVTFPDIIRNYKVMAAENIPENPLKYLYPNIDKDHAFGKYYSRPKEAPEPMELDGPKGTGYIKTELISVSEVHPSRLQTTDNLLPMSPEEFDEVSRIVGSVEFDSMMNTV
# notes: also called STAT1-Flag
# How the values were obtained:
# [1] = biological target: T1, Flag- and His6-tagged STAT1, bacterially expressed (pET-Flag-STAT1-His6) (human, UniProt P42224 1-750); test: pull-down; settings: both partners purified
# T1 construct: also called STAT1 (Flag-tagged); recombinant STAT1; source: E. coli BL21(DE3), purified (Ni-NTA)
# T1 sequence: B4 chain
# [2] = biological target: T2, Flag- and His6-tagged STAT2, bacterially expressed (pET-Flag-STAT2-His6) (human, UniProt P52630 1-851); test: pull-down; settings: both partners purified
# T2 construct: also called STAT2 (Flag-tagged); recombinant STAT2; source: E. coli BL21(DE3), purified (Ni-NTA)
# T2 sequence (P52630 whole entry): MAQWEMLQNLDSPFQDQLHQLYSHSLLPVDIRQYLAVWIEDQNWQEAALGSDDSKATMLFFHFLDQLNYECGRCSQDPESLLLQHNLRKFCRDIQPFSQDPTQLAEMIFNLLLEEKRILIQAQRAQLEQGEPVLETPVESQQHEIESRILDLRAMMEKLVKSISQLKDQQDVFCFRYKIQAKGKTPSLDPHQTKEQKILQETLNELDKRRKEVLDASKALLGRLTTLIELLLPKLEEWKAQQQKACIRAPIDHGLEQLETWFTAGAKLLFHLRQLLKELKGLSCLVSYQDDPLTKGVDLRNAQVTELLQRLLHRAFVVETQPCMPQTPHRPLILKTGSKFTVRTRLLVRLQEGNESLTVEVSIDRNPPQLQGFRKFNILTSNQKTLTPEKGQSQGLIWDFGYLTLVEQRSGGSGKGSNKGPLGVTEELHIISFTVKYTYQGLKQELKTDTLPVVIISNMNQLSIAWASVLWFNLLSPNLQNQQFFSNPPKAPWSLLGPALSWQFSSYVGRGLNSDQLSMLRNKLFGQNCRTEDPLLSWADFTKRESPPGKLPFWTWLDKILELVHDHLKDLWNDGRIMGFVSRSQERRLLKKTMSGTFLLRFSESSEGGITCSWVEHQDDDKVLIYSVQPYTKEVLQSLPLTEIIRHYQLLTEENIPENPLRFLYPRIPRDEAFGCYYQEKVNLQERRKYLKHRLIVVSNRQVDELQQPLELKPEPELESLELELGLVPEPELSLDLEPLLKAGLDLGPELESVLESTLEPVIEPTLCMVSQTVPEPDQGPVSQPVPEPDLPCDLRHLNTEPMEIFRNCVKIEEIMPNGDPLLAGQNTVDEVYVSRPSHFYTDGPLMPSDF
# [3] = biological target: T3, chitin-binding domain (CBD)-tagged STAT2 (human (HeLa cDNA library), UniProt P52630 1-851); test: co-IP; settings: partners not purified
# T3 construct: also called STAT2-CBD; CBD-fused STAT2
# T3 sequence (P52630 whole entry, the tested form may be a part): as the sequence (P52630 whole entry) above
# [4] = biological target: B1; test: pull-down; settings: both partners purified
binder,measurement,setting,value
B1,binding result,[1],binds
same,binding result,[2],binds
B2,binding result,[3],binds
B3,binding result,[4],binds
B4,binding result,[3],binds
